Reference: patent US20230107644A1 (UNIVERSITY OF ROCHESTER, published 2023)
Changes are numbered by the printed parent chain.

B1: 1122A11 hmAb (antibody, V domains shown)
VH: QVQLVQSGAEVSKPGASVKVSCKASGYSFTSQSLGWVRQAPGQGLEWMGIINPSGGITNYAHKFQGRVTMTRDTSTSTVYMELSSLRSEDTALYYCVRDLSHYNEVGHDRAYYYGMDIWGQGTTVTVSS
VL: SYELIQPPSVSVSPGQTASITCSGDKLGKKYTCWYQQKPGQSPVLVIYQDNKRPSGIPERFSGSNSGNTATLTISGTQAMDEADYYCQAWDSSAVVFGGGTKLTVL
B2: 1086G8 hmAb (antibody, V domains shown)
VH: EVQLLESGGGLVQPGGSLRLSCTASGFTFASDAMNWVRQAPGKGLEWVSAISGNGGITYFADSVKGRFTISRDNSKDTLYLQMDSLRAEDTAVYYCAKGVAPSHFNLLTGYYAGHYYFDFWGQGTLVTVSS
VL: EIVMTQSPATLSVSPGERATLSCRASQSVRHNLAWYQHKPGQPPRLLIYGASTRAASVPARFSGSGSGTDFTLTISSLQSEDFAVYYCQQYNHWPPYTFGQGTKLEIK
B3: 1092C4 hmAb (antibody, V domains shown)
VH: EVQLVQSGAEVKKPGASVKVSCKASGYSFTRYGISWVRQAPGQGLEWMGWISAYTGNTDYAQKFQGRITMTTDTSTSTAYMELRSLRSDDTAVYYCARDLPQGVVILGSYYYGMDVWGQGNTVTVSS
VL: EIVLTQSPGTLSLSPGERATLSCRASQSVTSRYLAWYQQKLGQAPRLLIYGASSRATGIPDRFSGSGSGTDFTLTISSLEPEDLAVYYCQQSGSPRTFGQGTKVEIK
B4: 1092E4 hmAb (antibody, V domains shown)
VH: B3 VH with E1Q, A79V, L100H
VL: B3 VL with L84F

Assays:
Experiment in all cases: cell-based or functional assay
[1] = biological target: NA (N2) of influenza virus A/Wyoming/3/2003 (influenza A virus A/Wyoming/3/2003 …)
[2] = biological target: NA (N2) of influenza virus A/Switzerland/9715283/2013 (influenza A virus …)
[3] = biological target: NA (N2) of influenza virus A/Victoria/210/2009 (influenza A virus A/Victoria/210/2009 …)
[4] = biological target: HA (H3) of influenza virus A/Wyoming/3/2003 (influenza A virus A/Wyoming/3/2003 …)

| Binder | NT50 [1] [µg/mL] | NT50 [2] [µg/mL] | NT50 [3] [µg/mL] | NT50 [4] [µg/mL] |
| --- | --- | --- | --- | --- |
| B1 | 6.25 | 25 | 25 |  |
| B2 |  |  |  | 0.78 |
| B3 |  |  |  | 1.6 |
| B4 |  |  |  | 3.13 |
